Experimental data as given in patent publication US20190092852A1 (Genentech, published 2019).
Substitutions are numbered along the chain they refer to. Read-outs that look alike come from different tables or passages of the source.

T1: human ST2L on HEK-BLUE IL-33/IL-1beta cells (human, UniProt Q01638 19-556)
T1 sequence: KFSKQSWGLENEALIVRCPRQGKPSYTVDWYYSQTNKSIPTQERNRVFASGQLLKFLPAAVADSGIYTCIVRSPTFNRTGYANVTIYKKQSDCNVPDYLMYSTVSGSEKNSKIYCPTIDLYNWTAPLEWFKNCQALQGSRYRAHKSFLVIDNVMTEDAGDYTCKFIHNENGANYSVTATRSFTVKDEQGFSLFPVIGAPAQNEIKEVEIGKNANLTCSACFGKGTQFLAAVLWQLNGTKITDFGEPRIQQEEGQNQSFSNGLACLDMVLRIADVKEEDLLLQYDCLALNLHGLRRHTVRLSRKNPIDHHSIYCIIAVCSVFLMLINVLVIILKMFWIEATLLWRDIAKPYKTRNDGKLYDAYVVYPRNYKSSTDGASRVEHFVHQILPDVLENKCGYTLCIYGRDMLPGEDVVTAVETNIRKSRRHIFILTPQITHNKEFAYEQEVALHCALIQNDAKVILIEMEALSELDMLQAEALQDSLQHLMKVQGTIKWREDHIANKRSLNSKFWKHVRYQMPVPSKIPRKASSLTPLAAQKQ

T2: cynomolgus monkey N-terminal 6-His-tagged and C-terminal Avi-tagged IL-33 (S112-T270) (cynomolgus monkey)
T2 chain: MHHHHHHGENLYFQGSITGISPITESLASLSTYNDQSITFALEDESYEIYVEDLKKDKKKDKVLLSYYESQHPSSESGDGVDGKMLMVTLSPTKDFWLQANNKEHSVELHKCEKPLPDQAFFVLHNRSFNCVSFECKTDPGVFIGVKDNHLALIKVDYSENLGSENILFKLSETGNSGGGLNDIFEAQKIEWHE

T3: cyno IL-33 N-His (cynomolgus monkey)
T3 chain: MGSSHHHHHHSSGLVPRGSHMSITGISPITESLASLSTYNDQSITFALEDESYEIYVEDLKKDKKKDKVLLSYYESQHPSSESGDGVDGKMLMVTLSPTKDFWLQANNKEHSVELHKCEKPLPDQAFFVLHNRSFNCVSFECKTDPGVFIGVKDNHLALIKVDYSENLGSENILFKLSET

T4: human IL-33 (R&D Systems, #3625-IL-010/CF) (human, UniProt O95760 112-270)
T4 construct: also called hIL-33; huIL-33
T4 sequence (looked up): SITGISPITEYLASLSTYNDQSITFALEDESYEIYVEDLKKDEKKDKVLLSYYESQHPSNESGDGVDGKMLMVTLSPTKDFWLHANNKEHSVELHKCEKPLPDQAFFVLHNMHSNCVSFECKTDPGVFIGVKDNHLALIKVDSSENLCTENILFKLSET

T5: biotinylated human IL-33 (human, UniProt O95760 112-270, biotin-labeled with EZ-LINK NHS-PEG4-Biotin)
T5 construct: also called biotin-huIL-33
T5 sequence (looked up): T4 sequence (looked up)

T6: biotinylated cyno IL-33 (cynomolgus monkey, UniProt A0A2K5W3I1 112-269, biotin-labeled with EZ-LINK NHS-PEG4-Biotin)
T6 construct: also called biotin-cyIL-33
T6 sequence: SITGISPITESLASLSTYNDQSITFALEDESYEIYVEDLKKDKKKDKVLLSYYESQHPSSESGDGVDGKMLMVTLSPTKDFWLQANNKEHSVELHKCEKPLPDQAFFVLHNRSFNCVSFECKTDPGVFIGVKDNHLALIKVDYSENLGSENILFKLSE

B1: Human IL-33 N-His Biotinylated (ligand)
ligand: T3 chain with S32Y, K64E, S81N, Q105H, R133M, S134H, F135S, Y164S, G169C, S170T
modifications: biotinylated, sites not given
B2: Human IL-33 N-His C-Avi (ligand)
ligand: T2 chain with S26Y, K58E, S75N, Q99H, R127M, S128H, F129S, Y158S, G163C, S164T
B3: H4H9675P (antibody, V domains shown)
VH: EVQLVESGGNLEQPGGSLRLSCTASGFTFSRSAMNWVRRAPGKGLEWVSGISGSGGRTYYADSVKGRFTISRDNSKNTLYLQMNSLSAEDTAAYYCAKDSYTTSWYGGMDVWGHGTTVTVSS
VL: DIQMTQSPSSVSASVGDRVTITCRASQGIFSWLAWYQQKPGKAPKLLIYAASSLQSGVPSRFSGSGSGTDFTLTISSLQPEDFAIYYCQQANSVPITFGQGTRLEIK
B4: H4H9629P (antibody, IgG4, V domains shown)
VH: EVQLVESGGGLVQPGGSLRLSCAASGFTFRSFAMSWVRQAPGKGLELVSDLRTSGGSTYYADSVKGRLTISRDNSKNTLYLQMNSLRAEDTAVYYCAKSHYSTSWFGGFDYWGQGTLVTVSS
VL: B3 VL with I29F, F30S, S76T, S77N, I85T, V94F, I96L, Q100G, R103K, L104V
notes: also called RG4
B5: H1M9568N (antibody, IgG1, V domains shown)
VH: QVLLVQSGAEVKKPGATVKVSCKASGSTFTGYYMHWVRQAPGQGLEWMGWINPNNGGTNYAQKFQGRVTMTRDTSISTAYMELSRLRSDDTAVYYCARELRYNWKSWGQGTLVTVSS
VL: EIVLTQSPGTLSLSPGERVTLSCRASQSVGRPYLAWYQQIPGQAPRLLIYGASSRATDIPDRFSGNGSGTDFTLTISRLEPEDFAVYYCQQYDNSPYTFGQGTRLEIK
notes: also called RG3
B6: H1M9565N (antibody, V domains shown)
VH: QVTLKESGPVLVKPTESLTLTCSVSGFSLSNVRMGVSWIRQSPGKALEWLAHIFSNDEKSYTTSLKTRLTISKDTSRSQVVLTMTDMDPGDTATYYCARIRNLAFNYWGQGTLVTVSS
VL: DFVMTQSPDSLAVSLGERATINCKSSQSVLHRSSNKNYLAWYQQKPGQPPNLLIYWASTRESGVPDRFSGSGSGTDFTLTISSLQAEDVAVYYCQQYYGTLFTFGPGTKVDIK

What was measured:
[1] = molecular target: T1, human ST2L on HEK-BLUE IL-33/IL-1beta …; test: cell-based or functional assay
[2] = molecular target: T2, cynomolgus monkey N-terminal …; test: cell-based or functional assay
cyno IL-33 N-His [3] = molecular target: T3, cyno IL-33 N-His; test: SPR Biacore T200, 25 C
Summary of the method: (§1)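 Antibodies captured via anti-Fc on CM5 chip; IL-33 injected at 3.7–100 nM (three-fold series), 4 min association, 10 min dissociation, 30 μl/min, ADA pH 7.4 buffer with 0.15 M NaCl, EDTA, Tween-20, at 25 °C or 37 °C. KD = koff/kon from 1:1 Langmuir fit; t1/2 = ln(2)/(60*koff).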

cyno IL-33 N-His [4] = molecular target: T3, cyno IL-33 N-His; test: SPR Biacore T200, 37 C
Summary of the method: as §1

[5] = molecular target: T2, cynomolgus monkey N-terminal …; test: cell-based or functional assay
[6] = molecular target: T4, human IL-33 (R&D Systems, …); test: SPR Biacore T200, 25 C
Summary of the method: as §1

[7] = molecular target: T4, human IL-33 (R&D Systems, …); test: SPR Biacore T200, 37 C
Summary of the method: as §1

[8] = molecular target: T4, human IL-33 (R&D Systems, …); test: cell-based or functional assay
[9] = molecular target: T4, human IL-33 (R&D Systems, …); test: cell-based or functional assay; remark: listed apart in the source
[10] = molecular target: T4, human IL-33 (R&D Systems, …); test: cell-based or functional assay; remark: listed apart in the source
[11] = molecular target: T4, human IL-33 (R&D Systems, …); test: cell-based or functional assay; remark: listed apart in the source
[12] = molecular target: T4, human IL-33 (R&D Systems, …); test: cell-based or functional assay; remark: listed apart in the source
[13] = molecular target: T4, human IL-33 (R&D Systems, …); test: cell-based or functional assay; remark: listed apart in the source
biotinylated human IL-33 = molecular target: T5, biotinylated human IL-33; test: competitive ELISA, biotin-huIL-33 to coated hST2-Fc
Procedure: (§2) The ability of the anti-IL-33 antibody 10C12.38.H6.87Y.58I IgG4 and each anti-IL-33 antibody listed in Table 5 (RG1-RG20) to block either human IL-33 or cyno IL-33 binding to human ST2 receptor was tested in a competitive binding ELISA. Briefly, 1 μg/ml of recombinant human ST2-Fc chimera protein prepared in coating buffer (50 mM sodium carbonate, pH 9.6) was coated on a 384-well MAXISORP® plate (Nalgene Nunc International; Rochester, N.Y.) and incubated overnight at 4° C. On the next day, non-specific binding was blocked with PBS containing 0.5% (w/v) solution of bovine serum albumin (BSA). Fixed concentrations of biotinylated human or cyno IL-33 prepared in assay buffer (25 mM PBS, pH 7.2, 0.1% BSA, 0.05% TWEEN®-20) were mixed with an equal volume of serially-diluted anti-IL-33 antibodies or assay buffer alone and incubated for 1 h at room temperature. The final assay concentrations of biotinylated human IL-33 or cyno IL-33 were 20 pM and 45 pM, respectively, and the final assay concentration of each antibody ranged from 0-300 nM. The pre-mixed solutions were added to the ST2-Fc coated plate and incubated for 1 h at room temperature. The binding of biotinylated IL-33 to coated ST2-Fc was detected by the sequential addition of Streptavidin Poly-HRP80 (Fitzgerald; Buckinghamshire, UK) and 3,3′,5,5′-tetramethyl benzidine (TMB) Microwell Peroxidase Substrate System (KPL; Gaithersburg, Md.). The absorbance (450 nm) was recorded using a […] ASCENT® plate reader (Thermo Scientific; Rockford, Ill.). The binding activity (%) of biotin-IL-33 to ST2 in the presence of anti-IL-33 was plotted as a function of antibody concentration. The data generated were fitted to a four-parameter equation to determine IC₅₀ values for each antibody (FIGS. 25A and 25B) using Prism software (Graphpad Software; La Jolla, Calif.). The maximum blocking (%) of each antibody was calculated as the ratio of the reduction in signal measured in the presence of antibody relative to the difference between the signal with IL-33 alone and background measurements.

biotinylated cyno IL-33 = molecular target: T6, biotinylated cyno IL-33; test: competitive ELISA, biotin-cyIL-33 to coated hST2-Fc
Procedure: as §2

Binder	EC50 (SEAP reporter OD 620, HEK-BLUE IL-33/IL-1beta cells) [1] [pM]	Kd (cyno IL-33 N-His [3]) [pM]	koff (cyno IL-33 N-His [3]) [s⁻¹]	kon (cyno IL-33 N-His [3]) [M⁻¹ s⁻¹]	t1/2 (cyno IL-33 N-His [3]) [min]	Kd (cyno IL-33 N-His [4]) [pM]	koff (cyno IL-33 N-His [4]) [s⁻¹]	kon (cyno IL-33 N-His [4]) [M⁻¹ s⁻¹]	t1/2 (cyno IL-33 N-His [4]) [min]	IC50; SEAP reporter (OD 620), HEK-BLUE IL-33/IL-1beta cells, 5 pM cyno IL-33 (5pM cIL-33-Nhis) [5] [M]	IC50; SEAP reporter (OD 620), HEK-BLUE IL-33/IL-1beta cells, 10 pM hIL-33 [8] [M]	IC50, IL-33-induced phospho-p38 in primary human basophils, 500 pM hIL-33 [9] [M]	IC50 (read off the curve) [10] [pM]	IC50 (read off the curve) [11] [pM]	Ph-p38 MFI at 0.4 nM Ab (500 pM human IL-33, primary basophils) [12] [MFI]	Ph-p38 MFI at 2 nM Ab (500 pM human IL-33, primary basophils) [13] [MFI]	IC50 (biotinylated human IL-33) [pM]	Maximum Blocking (biotinylated human IL-33) [%]	IC50 (biotinylated cyno IL-33) [pM]	Maximum Blocking (biotinylated cyno IL-33) [%]	also measured
B1	4	–	–	–	–	–	–	–	–	–	–	–	–	–	–	–	–	–	–	–	–
B2	9.8	–	–	–	–	–	–	–	–	–	–	–	–	–	–	–	–	–	–	–	–
B3	–	2730	0.000988	362000	12	6720	0.00505	751000	2	5.7e-08	–	–	–	–	–	–	–	–	–	–	HEK-BLUE SEAP reporter, fold weaker than 10C12.38.H6.87Y.58I IgG4 [2]: 14 fold
B4	–	54000	0.0204	379000	1	547000	0.000502	916	23	–	3.3e-11	3.6e-13	0.3 to 0.4	0.3 to 0.4	67	38	92	82	–	–	Kd [6]: 559 pM; koff [6]: 0.000632 s⁻¹; kon [6]: 1.13e+06 M⁻¹ s⁻¹; t1/2 [6]: 18 min; Kd [7]: 261 pM; koff [7]: 0.000738 s⁻¹; kon [7]: 2.82e+06 M⁻¹ s⁻¹; t1/2 [7]: 16 min
B5	–	–	–	–	–	–	–	–	–	2.9e-08	1.1e-10	4e-13	~0.4	~0.4	88	38	190	85	77000	45	–
B6	–	2980	0.000606	203000	19	–	–	–	–	–	–	–	–	–	–	–	–	–	19000	85	HEK-BLUE SEAP reporter IC50 [2]: 6100 pM
